Measured values: the supplement of paper PMC10567573

B1: CLCN6 (parent)
chain: VGEIVGIITRHNLTYEFLQARLRQ
B2: FCHSD1 (parent)
chain: LQEPGVFSPTPPQQFQPAGTDQVC

Variants of: B1
Assay: protein stability index of a GFP-peptide fusion (GPS, HEK-293T) (PSI 1-6); higher = more stable
Settings: c terminus: a fixed tail appended
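Note: lentivirally expressed fusions sorted by FACS into six bins by GFP to DsRed ratio, PSI derived from sequencing read proportions per bin multiplied by bin number.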

Protein stability index: each site, then its substitutions
V1: Y 2.83, T 1.65, W 2.47
G2: L 2.48, V 2.66, E 1.75, H 2.81, Q 1.13, T 2.6, C 2.06, Y 1.98, K 2.53, M 1.09, P 1.86, W 3.19, D 2.23, N 3, A 3.29
I8: S 2.65, E 3.29, H 1.79, N 3.2, Y 1.21, C 1.16, L 2.03, R 2.64, A 1.27, G 2.2, Q 2.47
G6: H 2.89, P 1.7, E 4.38, S 2.95, T 3.72
N12: P 1.92, G 5.11, R 2.69, I 1.15, K 2.04, Q 4, D 2.21, C 2.21, H 3.27, A 5, E 1.16
A20: Q 2.04, I 2.56, L 2.08, Y 1.04, S 2.02
L22: P 1.53, V 3.2, N 1.15, S 2.58, Y 2.44, K 1.93, H 1.93, R 2.47, M 2.37, E 1.04, W 2.32, D 1.51, Q 2.07
E3: A 2.59, Q 3.17, T 1.74, Y 3.28, C 2.72, D 2.05, H 2.38, V 2.62, W 2.42, F 1.43, R 2.51, P 3.11
L18: A 2.67, Q 2.07, F 2.71, D 2.26, P 2.81, R 2.55, S 1.02, N 1.6, E 3.96, K 2.67, G 1.58, Y 4.04, M 2.33, I 2.62
R10: N 2.88, Y 1.93, E 2.92, T 3.15, K 2.19, D 2.73, P 1.75, L 4.12
Y15: S 1.83, K 1.47, V 1.63, A 2.07, D 1.51, F 2.95, R 4.35, Q 2.38, G 1.65, P 1.62
I7: A 1.77, Q 2.72, K 1.7, L 2.53, G 2.44, C 2.31, N 2.18, Y 3.15, T 1.73, E 2.07, P 2.56, D 2.38, H 2.05
I4: A 2.1, Q 2.38, R 2.72, N 2.37, P 2.88, D 2.66, S 2.23, G 2.33, F 1.52, E 2.51, H 2.02, K 2.15, V 2.06, T 1.75, M 2.33, Y 2.53, C 2.18, L 2.59
F17: S 2.71, C 1.8, E 2.01, G 3.15, P 2.11, H 1.04, Q 2.76, T 1.87, I 2.02
Q19: I 3.35, G 1.52, P 1.62, K 4.39, Y 1.01, S 2.49, E 2.47
R23: V 5.95, H 1.73, Q 1.69, P 1.86, E 1.2, F 2.58, Y 4.23
T9: R 1.4, L 1.89, D 1.92, E 1.38, K 1.29, F 2.35, G 2.63, P 2.78, S 2.77, C 2.71, N 2.88
H11: G 1.76, N 4.18, D 2.48, V 2.32
V5: R 2.55, Q 1.37, S 1.83, A 1.89, N 1.75, H 1.92, K 1.38, T 1.49, G 2.29, M 3.11, Y 2.19, E 1.76, P 2.46
Q24: C 3.27, Y 2.14, E 3.09, R 1.88, A 4.07, S 2.53, P 2.15, N 2.8, K 1.61, V 2.87
R21: Q 2.57, G 1.89, Y 1.86, T 2.69, W 2.19, V 1.67, N 2.01, K 1.06, D 2.76
T14: N 2.03, F 2.92, V 2.98, L 2.29, Q 1.26, A 3.01, E 1.22, Y 3.07
L13: V 2.04, N 1.08, I 3.13, A 1.63, G 1.7, C 2.08, F 2.15, P 1.94, Q 1.69, H 1.51, E 2.18, M 1.86, W 3.73
E16: H 2.17, W 3.79, P 1.8, S 2.17, L 3.17, R 2.46, G 1.02, K 1.52, Q 1.93

Variants of: B2
Assay: as above
Settings: c terminus: a fixed tail appended

Protein stability index of substitutions, site by site:
T20: L 3.61
P11: R 3.9, T 4.31, H 4.09, Q 4.26, S 3.73, L 3.89, W 3.41, Y 3.65, C 2.16, M 4.17, V 4.43, G 4.25, A 4.41, K 3.62, D 4.5, I 4.04, E 4.69, N 4.38, F 3.49
S8: R 4.57, W 3.85
Q16: L 3.93
Q13: V 4.26, S 4.16, Y 3.74, R 4.07, I 3.6, G 3.89, M 3.96, D 4.55, W 3.17, C 4.04, N 4.11, F 3.8, K 3.78, E 3.75
Q14: G 2.86, V 4.1
A18: W 2.99
T10: D 4.67, Y 3.38, E 4.38, N 3.98, M 3.82, A 4.56, G 4.16, H 4.17, S 4.34, Q 4.21, K 4, V 3.96, C 3.52, R 3.54, I 3.65, F 3.5, W 3.35, L 4.16
P9: M 4.38, Y 3.81, S 4.14, K 4.31, D 4.69, A 4.57, E 4.7, R 4.26, H 4.29, C 4.26, L 4.56, F 4.14, W 3.67, T 4.69, N 4.04, Q 4.65, G 4.38, I 4.03, V 4.3
P12: S 4.46, N 4.33, M 4.09, R 4.33, C 4.02, W 3.5, L 3.96, Y 3.66, K 4.05, G 4.5, V 3.69, F 3.48, E 4.82, Q 4.45, I 4.11, H 4.23, D 5.07
F15: C 4.17, G 4.68
